B1: Isoform 1 of Acetyl-CoA acetyltransferase, cytosolic (Homo sapiens), Q9BWD1-1 (parent)
chain: MNAGSDPVVIVSAARTIIGSFNGALAAVPVQDLGSTVIKEVLKRATVAPEDVSEVIFGHVLAAGCGQNPVRQASVGAGIPYSVPAWSCQMICGSGLKAVCLAVQSIGIGDSSIVVAGGMENMSKAPHLAYLRTGVKIGEMPLTDSILCDGLTDAFHNCHMGITAENVAKKWQVSREDQDKVAVLSQNRTENAQKAGHFDKEIVPVLVSTRKGLIEVKTDEFPRHGSNIEAMSKLKPYFLTDGTGTVTPANASGINDGAAAVVLMKKSEADKRGLTPLARIVSWSQVGVEPSIMGIGPIPAIKQAVTKAGWSLEDVDIFEINEAFAAVSAAIVKELGLNPEKVNIEGGAIALGHPLGASGCRILVTLLHTLERMGRSRGVAALCIGGGMGIAMCVQRE
B2: Cytosolic 5'-nucleotidase 1A (Homo sapiens), Q9BXI3 (parent)
chain: MEPGQPREPQEPREPGPGAETAAAPVWEEAKIFYDNLAPKKKPKSPKPQNAVTIAVSSRALFRMDEEQQIYTEQGVEEYVRYQLEHENEPFSPGPAFPFVKALEAVNRRLRELYPDSEDVFDIVLMTNNHAQVGVRLINSINHYDLFIERFCMTGGNSPICYLKAYHTNLYLSADAEKVREAIDEGIAAATIFSPSRDVVVSQSQLRVAFDGDAVLFSDESERIVKAHGLDRFFEHEKAHENKPLAQGPLKGFLEALGRLQKKFYSKGLRLECPIRTYLVTARSAASSGARALKTLRSWGLETDEALFLAGAPKGPLLEKIRPHIFFDDQMFHVAGAQEMGTVAAHVPYGVAQTPRRTAPAKQAPSAQ
B3: Zinc finger protein Aiolos (Homo sapiens), Q9UKT9 (parent)
chain: MEDIQTNAELKSTQEQSVPAESAAVLNDYSLTKSHEMENVDSGEGPANEDEDIGDDSMKVKDEYSERDENVLKSEPMGNAEEPEIPYSYSREYNEYENIKLERHVVSFDSSRPTSGKMNCDVCGLSCISFNVLMVHKRSHTGERPFQCNQCGASFTQKGNLLRHIKLHTGEKPFKCHLCNYACQRRDALTGHLRTHSVEKPYKCEFCGRSYKQRSSLEEHKERCRTFLQSTDPGDTASAEARHIKAEMGSERALVLDRLASNVAKRKSSMPQKFIGEKRHCFDVNYNSSYMYEKESELIQTRMMDQAINNAISYLGAEALRPLVQTPPAPTSEMVPVISSMYPIALTRAEMSNGAPQELEKKSIHLPEKSVPSERGLSPNNSGHDSTDTDSNHEERQNHIYQQNHMVLSRARNGMPLLKEVPRSYELLKPPPICPRDSVKVINKEGEVMDVYRCDHCRVLFLDYVMFTIHMGCHGFRDPFECNMCGYRSHDRYEFSSHIARGEHRALLK
partner: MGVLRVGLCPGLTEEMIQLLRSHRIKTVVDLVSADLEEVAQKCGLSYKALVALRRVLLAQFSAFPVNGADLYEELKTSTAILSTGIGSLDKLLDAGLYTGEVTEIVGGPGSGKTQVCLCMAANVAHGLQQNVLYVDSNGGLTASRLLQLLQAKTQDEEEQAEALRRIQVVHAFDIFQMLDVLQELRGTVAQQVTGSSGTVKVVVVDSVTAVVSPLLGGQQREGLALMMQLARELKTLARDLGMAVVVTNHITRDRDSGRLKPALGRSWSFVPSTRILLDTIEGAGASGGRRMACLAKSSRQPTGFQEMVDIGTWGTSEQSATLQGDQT
B4: Multifunctional procollagen lysine hydroxylase and glycosyltransferase LH3 (Homo sapiens), O60568 (parent)
chain: MTSSGPGPRFLLLLPLLLPPAASASDRPRGRDPVNPEKLLVITVATAETEGYLRFLRSAEFFNYTVRTLGLGEEWRGGDVARTVGGGQKVRWLKKEMEKYADREDMIIMFVDSYDVILAGSPTELLKKFVQSGSRLLFSAESFCWPEWGLAEQYPEVGTGKRFLNSGGFIGFATTIHQIVRQWKYKDDDDDQLFYTRLYLDPGLREKLSLNLDHKSRIFQNLNGALDEVVLKFDRNRVRIRNVAYDTLPIVVHGNGPTKLQLNYLGNYVPNGWTPEGGCGFCNQDRRTLPGGQPPPRVFLAVFVEQPTPFLPRFLQRLLLLDYPPDRVTLFLHNNEVFHEPHIADSWPQLQDHFSAVKLVGPEEALSPGEARDMAMDLCRQDPECEFYFSLDADAVLTNLQTLRILIEENRKVIAPMLSRHGKLWSNFWGALSPDEYYARSEDYVELVQRKRVGVWNVPYISQAYVIRGDTLRMELPQRDVFSGSDTDPDMAFCKSFRDKGIFLHLSNQHEFGRLLATSRYDTEHLHPDLWQIFDNPVDWKEQYIHENYSRALEGEGIVEQPCPDVYWFPLLSEQMCDELVAEMEHYGQWSGGRHEDSRLAGGYENVPTVDIHMKQVGYEDQWLQLLRTYVGPMTESLFPGYHTKARAVMNFVVRYRPDEQPSLRPHHDSSTFTLNVALNHKGLDYEGGGCRFLRYDCVISSPRKGWALLHPGRLTHYHEGLPTTWGTRYIMVSFVDP
partner: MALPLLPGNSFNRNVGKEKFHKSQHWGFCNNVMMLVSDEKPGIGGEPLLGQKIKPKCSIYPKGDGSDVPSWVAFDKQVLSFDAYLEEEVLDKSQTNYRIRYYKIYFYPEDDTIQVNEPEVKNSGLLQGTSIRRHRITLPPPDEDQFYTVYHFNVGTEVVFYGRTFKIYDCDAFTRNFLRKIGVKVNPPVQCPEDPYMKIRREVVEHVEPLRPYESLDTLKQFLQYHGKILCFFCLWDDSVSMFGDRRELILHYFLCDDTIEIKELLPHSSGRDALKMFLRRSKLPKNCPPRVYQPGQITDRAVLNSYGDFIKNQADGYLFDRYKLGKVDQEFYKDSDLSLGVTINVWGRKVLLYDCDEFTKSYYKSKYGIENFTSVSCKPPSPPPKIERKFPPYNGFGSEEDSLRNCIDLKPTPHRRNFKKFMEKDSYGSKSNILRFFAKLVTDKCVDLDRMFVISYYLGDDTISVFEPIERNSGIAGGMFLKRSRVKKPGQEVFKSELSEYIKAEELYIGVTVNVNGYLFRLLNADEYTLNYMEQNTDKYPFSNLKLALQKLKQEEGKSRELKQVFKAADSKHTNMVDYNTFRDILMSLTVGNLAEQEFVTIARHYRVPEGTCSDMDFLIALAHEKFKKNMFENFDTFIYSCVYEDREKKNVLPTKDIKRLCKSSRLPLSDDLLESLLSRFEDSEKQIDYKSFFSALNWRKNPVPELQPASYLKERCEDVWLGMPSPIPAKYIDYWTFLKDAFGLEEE
B5: Microtubule-associated tumor suppressor candidate 2 (Homo sapiens), Q5JR59-3 (parent)
chain: MGHCCCKPYNCLQCLDKTNESALVKEKELSIELANIRDEVAFHTAKCEKLQKEKEELERRFEDEVKRLGWQQQAELQELEERLQLQFEAEMARLQEEHGDQLLSIRCQHQEQVEDLTASHDAALLEMENNHTVAITILQDDHDHKVQELMSTHELEKKELEENFEKLRLSLQDQVDTLTFQSQSLRDRARRFEEALRKNTEEQLEIALAPYQHLEEDMKSLKQVLEMKNQQIHEQEKKILELEKLAEKNIILEEKIQVLQQQNEDLKARIDQNTVVTRQLSEENANLQEYVEKETQEKKRLSRTNEELLWKLQTGDPTSPIKLSPTSPVYRGSSSGPSSPARVSTTPR
partner: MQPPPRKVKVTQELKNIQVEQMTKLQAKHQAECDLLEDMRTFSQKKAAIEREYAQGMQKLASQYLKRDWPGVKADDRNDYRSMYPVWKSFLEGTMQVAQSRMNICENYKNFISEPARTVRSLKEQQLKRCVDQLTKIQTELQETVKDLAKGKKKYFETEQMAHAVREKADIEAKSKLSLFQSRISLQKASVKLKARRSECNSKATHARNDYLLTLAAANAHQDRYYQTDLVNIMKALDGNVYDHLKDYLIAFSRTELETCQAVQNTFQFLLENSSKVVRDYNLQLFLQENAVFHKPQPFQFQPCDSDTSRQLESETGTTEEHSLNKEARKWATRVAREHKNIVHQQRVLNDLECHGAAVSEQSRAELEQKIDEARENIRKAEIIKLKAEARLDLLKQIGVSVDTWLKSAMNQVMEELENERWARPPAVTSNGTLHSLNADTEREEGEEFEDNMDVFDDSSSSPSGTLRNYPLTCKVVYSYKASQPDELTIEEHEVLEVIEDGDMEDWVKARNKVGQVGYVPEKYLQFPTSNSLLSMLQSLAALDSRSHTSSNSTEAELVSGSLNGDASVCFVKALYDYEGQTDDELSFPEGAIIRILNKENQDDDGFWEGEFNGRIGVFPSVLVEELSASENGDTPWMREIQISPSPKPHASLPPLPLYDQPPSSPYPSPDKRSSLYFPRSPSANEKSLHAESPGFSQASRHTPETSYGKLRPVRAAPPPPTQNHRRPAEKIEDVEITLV

The values below come from IntAct's records for PubMed 31515488.

Variants of B1 are the subject of the first assay. The settings on record: with lnx1_human LNX1, Q8TBB1.
Chain of lnx1_human LNX1, Q8TBB1 (Q8TBB1 whole entry): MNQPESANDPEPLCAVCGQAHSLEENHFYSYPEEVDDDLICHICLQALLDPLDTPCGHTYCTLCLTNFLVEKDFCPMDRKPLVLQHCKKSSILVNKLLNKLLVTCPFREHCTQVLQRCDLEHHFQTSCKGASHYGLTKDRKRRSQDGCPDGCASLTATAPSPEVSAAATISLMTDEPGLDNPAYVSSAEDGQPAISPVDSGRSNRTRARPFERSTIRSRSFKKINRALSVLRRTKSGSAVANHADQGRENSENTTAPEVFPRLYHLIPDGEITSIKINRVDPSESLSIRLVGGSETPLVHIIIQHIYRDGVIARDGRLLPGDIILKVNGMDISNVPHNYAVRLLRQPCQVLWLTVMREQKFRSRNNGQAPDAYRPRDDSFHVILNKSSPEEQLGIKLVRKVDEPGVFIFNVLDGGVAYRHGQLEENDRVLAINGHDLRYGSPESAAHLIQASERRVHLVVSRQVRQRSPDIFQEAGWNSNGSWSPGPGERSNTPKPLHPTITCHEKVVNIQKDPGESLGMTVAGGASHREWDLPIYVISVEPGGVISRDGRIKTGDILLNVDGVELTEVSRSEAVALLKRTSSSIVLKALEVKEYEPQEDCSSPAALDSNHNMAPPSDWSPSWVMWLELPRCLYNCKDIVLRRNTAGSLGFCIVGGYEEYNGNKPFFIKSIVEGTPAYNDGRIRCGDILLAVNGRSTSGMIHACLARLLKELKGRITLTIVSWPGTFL
Consider G161S, for which the “effect of a mutation on the interaction” value is recorded as “with no effect”.

Variants of B2 are the subject of the next assay. Particulars: with ntaq1_human NTAQ1, Q96HA8.
As to MEPGQPREPQEPREPGPGAETAAAPVWEEAKIFCDNLAPKKKPKSPKPQNAVTIAVSSRALFRMDEEQQIYTEQGVEEYVRYQLEHENEPFSPGPAFPFVKALEAVNRRLRELYPDSEDVFDIVLMTNNHAQVGVRLINSINHYDLFIERFCMTGGNSPICYLKAYHTNLYLSADAEKVREAIDEGIAAATIFSPSRDVVVSQSQLRVAFDGDAVLFSDESERIVKAHGLDRFFEHEKAHENKPLAQGPLKGFLEALGRLQKKFYSKGLRLECPIRTYLVTARSAASSGARALKTLRSWGLETDEALFLAGAPKGPLLEKIRPHIFFDDQMFHVAGAQEMGTVAAHVPYGVAQTPRRTAPAKQAPSAQ [Y34C], the “effect of a mutation on the interaction” value was “with no effect”.

Variants of B3 are the subject of another assay. Particulars: with ra51d_human RAD51D.
A24V: the “effect of a mutation on the interaction” value is on record as “with no effect”.

Turning to N119D, the “effect of a mutation on the interaction” value was “with no effect”.

In the next assay the parent is B4. The settings on record: with efhc2_human EFHC2, Q5JST6.
Turning to A492V, the “effect of a mutation on the interaction” value is reported as “disrupting interaction strength”.

A further assay covers variants of B5. The settings on record: with fcsd2_human FCHSD2, O94868.
As for MGHCCCKPYNCLQCLDKTNESALVKEKELSIELANIRDEVAFHTAKCEKLQKEKEELERRFEDEVKRLGWQQQAELQELEERLQLQFEVEMARLQEEHGDQLLSIRCQHQEQVEDLTASHDAALLEMENNHTVAITILQDDHDHKVQELMSTHELEKKELEENFEKLRLSLQDQVDTLTFQSQSLRDRARRFEEALRKNTEEQLEIALAPYQHLEEDMKSLKQVLEMKNQQIHEQEKKILELEKLAEKNIILEEKIQVLQQQNEDLKARIDQNTVVTRQLSEENANLQEYVEKETQEKKRLSRTNEELLWKLQTGDPTSPIKLSPTSPVYRGSSSGPSSPARVSTTPR [A89V], the “effect of a mutation on the interaction” value was “with no effect”.
